Measured values as given in US20210032331A1 (PHANES THERAPEUTICS, published 2021).

T1: human LAG-3(ECD)-huFc (human, UniProt P18627 23-450)
T1 construct: also called Fc-tagged human LAG-3(ECD)-huFc; not shown: human Fc (huFc) at the C-terminus
T1 sequence: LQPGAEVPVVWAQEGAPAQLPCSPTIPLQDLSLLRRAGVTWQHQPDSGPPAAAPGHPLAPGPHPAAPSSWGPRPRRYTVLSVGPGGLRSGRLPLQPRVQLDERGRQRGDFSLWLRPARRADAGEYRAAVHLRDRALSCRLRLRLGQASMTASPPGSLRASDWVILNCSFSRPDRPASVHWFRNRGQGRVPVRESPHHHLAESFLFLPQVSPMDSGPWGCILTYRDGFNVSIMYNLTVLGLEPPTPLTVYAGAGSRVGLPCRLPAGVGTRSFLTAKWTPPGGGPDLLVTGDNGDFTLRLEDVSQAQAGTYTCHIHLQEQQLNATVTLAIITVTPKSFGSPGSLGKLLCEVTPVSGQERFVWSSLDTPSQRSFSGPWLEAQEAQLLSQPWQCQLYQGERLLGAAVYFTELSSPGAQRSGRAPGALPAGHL


How the values were obtained:
B4C = molecular target: T2, B4C; test: ELISA peptide competition: peptide (1X, 10X, 50X) preincubated with chimeric IgG1 B4, competitor hLAG3-mFc; capture on anti-human IgG, anti-mouse IgG-HRP
T2 construct: Chimeric: mouse VH and VL fused to constant regions of human IgG1 heavy chain and kappa light chain; also called the chimeric version of mouse mAb B4; B4 (human IgG1 heavy chain and kappa light chain chimeric)
Method: (§1) Then human LAG-3 extracellular domain (ECD) fused to mouse Fc (hLAG3-mFc) was added (the final peptide concentration was 600-fold that of hLAG3-mFc) and the mixture was incubated for 60 minutes before being added to an ELISA plate coated with anti-human IgG. The incubation was carried out at 4° C. overnight. After washing, the hLAG3-mFc bound to the immobilized B5/IgG4 on the ELISA plate was detected by adding anti-mouse IgG conjugated to horseradish peroxidase (HRP) and incubating for 60 minutes. Then, after washing, the ELISA was developed using One-step Detection Solution and measured as the absorbance at 450 nm.
(§2) FIGS. 9A-9B show the effect of competition peptides on LAG-3 binding to anti-LAG-3 mAbs.
(§3) Anti-human IgG in carbonate coating buffer was coated on an ELISA plate at 4° C. (50 μL/well at 1 μg/mL) overnight. In each well of a separate plate, a chimeric version of a given anti-LAG-3 mAb (50 μL/well at 1.4 nM) and a competition peptide (50 μL/well at various concentrations as indicated in the figures) were mixed and incubated for 30 minutes at room temperature. Then human LAG-3 extracellular domain (ECD) fused to mouse Fc (hLAG3-mFc) was added to each well (50 μL/well at 2 nM) and the final mixture was incubated at room temperature for 60 minutes before added to the ELISA plate (50 μL/well) for another 60-minute incubation. The final incubation after adding the mixture to the ELISA plate was also performed at 4° C. overnight in some assays.

B3C = molecular target: T3, B3C; test: ELISA peptide competition: peptide (1X, 10X, 50X) preincubated with chimeric IgG1 B3, competitor hLAG3-mFc; capture on anti-human IgG, anti-mouse IgG-HRP
T3 construct: Chimeric: mouse VH and VL fused to constant regions of human IgG1 heavy chain and kappa light chain; also called the chimeric version of mouse mAb B3; B3 (human IgG1 heavy chain and kappa light chain chimeric)
Method: as §1, §2, §3

B7/IgG4 = molecular target: T4, B7/IgG4; test: ELISA peptide competition: peptide preincubated with B7/IgG4, competitor hLAG3-mFc; peptide at 600-fold hLAG3-mFc; final incubation 60 min at room temperature; anti-mouse IgG-HRP
T4 construct: Chimeric: mouse VH and VL with human IgG4 heavy chain and kappa light chain constant regions; also called B7 (human IgG4 heavy chain and kappa light chain chimeric)
Method: as §1, with “B5/IgG4 was preincubated with a competition peptide for 30 minutes. Then human” for “Then human”
The assay condition is the same as in FIG. 5A except that the final incubation of the mAb, the competition peptide, and hLAG3-mFc on the ELISA plate was performed at room temperature for 60 minutes instead of incubation at 4° C. overnight.
as §3, with “incubation.” for “incubation. The final incubation after adding the mixture to the ELISA plate was also performed at 4° C. overnight in some assays.”

human LAG-3(ECD)-huFc = molecular target: T1, human LAG-3(ECD)-huFc; test: SPR (Biacore): mAb from hybridoma supernatant captured on anti-mouse IgG CM5 chip, human LAG-3(ECD)-huFc 50-400 nM injected
Method: Anti-mouse IgG antibodies were immobilized via amine coupling on CM5 chip surface. Anti-LAG-3 mAbs in hybridoma supernatants were captured on the chip surface and a series of concentrations (50-400 nM) of human LAG-3(ECD)-huFc protein were injected and passed through the captured surface. The on and off rates for antibody-antigen binding were measured, curve fitted and calculated.

Binder	binding result (B4C)	binding result (B3C)	binding result (B7/IgG4)	Kd (human LAG-3(ECD)-huFc) [nM]
PGHPLAPGPHPAAPSSW (also called peptide 7-23) [7-23]	binds	binds	–	–
LAPGPHPAAPSSWG (also called peptide 11-24) [11-24]	binds	binds	–	–
APGPHPAAPSSWG (also called peptide 12-24) [12-24]	binds	binds	–	–
PGPHPAAPSSWG (also called peptide 13-24) [13-24]	binds	binds	–	–
GPHPAAPSSWG (also called peptide 14-24) [14-24]	binds	binds	–	–
PHPAAPSSWGPRPRRY (also called peptide 15-30) [15-30]	binds	binds	binds	–
HPAAPSSWGPRPRRY (also called peptide 16-30) [16-30]	binds	binds	binds	–
B3 (antibody, V domains shown, Mouse mAb from hybridoma; also called mouse anti-LAG-3 mAb B3) VH: QVQLQQPGAELLKPGASVKMSCKASGYTFTSYDIHWLKQTPGQGLEWIGAIYPENGDSSYSQKFKDKATLTADKSSNTAYIHLSSLTSEDSAVYYCARGGYYDYVWFPYWGQGTLVTVSA VL: DVVMTQTPLSLPVSLGDQASISCRSSQSILYSNGYTYLEWYLQKPGQSPKLLIYGVSNRFSGVPDRFSGSGSGTDFTLKISRVESEDMGVYYCFQGTHVPLTFGAGTKLELK	–	–	–	1.53
B4 (antibody, V domains shown, Mouse mAb from hybridoma; also called mouse anti-LAG-3 mAb B4) VH: QVQLQQPGAELLKPGASVKMSCKASGYTFTSYDIHWLKQTPGQGLEWIGAIYPENGDSSYSQKFKGKATLTADKSSNTAYIHLSSLTSEDSAVYYCARGGYFDYVWFPYWGQGTLVTVSA VL: DVVMTQTPLSLPVSLGDQASISCRSSQSIVYSNGYTYLEWYLQKPGQSPKLLIYGVSNRFSGVPDRFSGSGSGTDFTLKISRVEAEDMGVYYCFQGTHVPLTFGAGTKLELK	–	–	–	0.217
PAAPSSWGPRPRRY (also called peptide 17-30) [17-30]	–	–	binds	–
AAPSSWGPRPRRY (also called peptide 18-30) [18-30]	–	–	binds	–
APSSWGPRPRRY (also called peptide 19-30) [19-30]	–	–	binds	–
PGHPLAPGPHPAAPSS (also called peptide 7-22) [7-22]	no binding (tested: 50X peptide)	no binding (tested: 50X peptide)	–	–
B1 (antibody, V domains shown, Mouse mAb from hybridoma; also called mouse anti-LAG-3 mAb B1) VH: DVQLQESGPGLVKPSQSLSLTCTVTGYSITSDYAWNWIRQFPGNKLEWMGYIDYSGITSYNPSLKSRISITRDTSKNQFFLQLNSVTTEDTATYYCAREDHYDLAWFAYWGQGTLVTVSA VL: DIQMTQTTSSLSASLGDRVTISCRASQDISNYLNWYQQKPDGTVKLLIYYTSRLHSGVPSRFSGSGSGTDYSLTISNLEPEDIATYYCHQYSNRPPTFGGGTKLEIK	–	–	–	1.21
B13 (antibody, V domains shown, Mouse mAb from hybridoma; also called mouse anti-LAG-3 mAb B13) VH: EVMLVESGGGLVKPGGSLKVSCAASGFTFSIYAMCWVRQTPEKRLEWVATISSGGSNTYYPDSVKGRFTISRDNAKNTLYLQMSSLRSEDTAVYYCARGDVYYDYDGRGFDYWGQGTTLTVSS VL: DIVMTQSPSSLTVTAGEKVTMSCKSSQSLLNSGNQKNYLTWYQQKPGQPPKMLIYWASTRESGVPERFTGSGSGTDFTLTINSVQAEDMAIYYCQNDYGYPLAFGAGTRLELK	–	–	–	8.17
B2 (antibody, V domains shown, Mouse mAb from hybridoma; also called mouse anti-LAG-3 mAb B2) VH: QVHLQQSGPQLVKPGASVKISCKASGYTFTDYYINWVKQRPGQGLEWIGWIFPGSGSTYYNEKFKGKATLTVDKSSSTAYMLLSSLTSEDSAVYFCVRIHFDYDWFFDVWGTGTTVTVSS VL: DVVMTQTPLSLPVSLGDQASISCRSSQSIVHSNGNTYFYWYLQKPGQSPNLLIYRVSNRFSGVPDRFSGSGSGTDFTLKISRVEAEDMGVYYCFQGTHVPYTFGGGTKLEIK	–	–	–	4.09
B11 (antibody, V domains shown, Mouse mAb from hybridoma; also called mouse anti-LAG-3 mAb B11) VH: EVQLQQSGPVLVRPGASVKMSCKASGYTFTNYYMNWVKQSHGKSLEWIGVINPYNGDIAYSQKFKGKATLTVDKSSSTAYMELKSLTSEDSAVYYCARDDGYYVYYFDCWGQGTTLTVSS VL: DIQMTQSPSSLSASLGERVSLTCRASQDIGGSLNWLQQKPDGTIKRLIYSTSTLDSGVPKRFSGSRSGSDYSLTISSLESEDFADYYCLQNANSPPTFGGGTKLEIK	–	–	–	1.18
B7 (antibody, V domains shown, Mouse mAb from hybridoma; also called mouse anti-LAG-3 mAb B7) VH: EFQLQQSGPELVKPGASVKISCKASGYSFSDYNLNWVKQSNGKTLEWIGLINLDSAATVYNQKFKGKATLTIDQSSTTAYMQLNSLTSDDSAVYYCASYDYWGQGTTLTVSS VL: DIQMTQSPSSLSASLGERVSLSCRASQDISHYLNWFQQKPDGTFKRLIYETSTLDFGVPKRFSGSRSGSDYSLTIGSLESEDFADYYCLQYATYPLTFGAGTKLELK	–	–	–	0.758
B10 (antibody, V domains shown, Mouse mAb from hybridoma; also called mouse anti-LAG-3 mAb B10) VH: EFQLQQSGPELVKPGASVKISCKASGYSFTDYNLNWVKESNGKSLEWIGLITLDYGTTIYNQKFKGKATLTVDQSSSIAYMQLNSLTSDDSAVYYCACYDYWGQGTTLTVSS VL: DIQMTQSPSSLSASLGERVSLTCRASQDISNYLNWFQQKPDGTFKRLIYATSTLDFGVPKRFSGSRSGSDYSLTISSLESEDFADYYCLQYASYPLTFGAGTKLELK	–	–	–	1.1
